Changes are numbered by the printed parent chain. Where two headings read alike, the source gives them in different places.
T1: human CCR4 (human, UniProt P51679 1-360)
T1 construct: whole, on cells; also called h.CCR4; HEK293T-h.CCR4
T1 sequence (looked up): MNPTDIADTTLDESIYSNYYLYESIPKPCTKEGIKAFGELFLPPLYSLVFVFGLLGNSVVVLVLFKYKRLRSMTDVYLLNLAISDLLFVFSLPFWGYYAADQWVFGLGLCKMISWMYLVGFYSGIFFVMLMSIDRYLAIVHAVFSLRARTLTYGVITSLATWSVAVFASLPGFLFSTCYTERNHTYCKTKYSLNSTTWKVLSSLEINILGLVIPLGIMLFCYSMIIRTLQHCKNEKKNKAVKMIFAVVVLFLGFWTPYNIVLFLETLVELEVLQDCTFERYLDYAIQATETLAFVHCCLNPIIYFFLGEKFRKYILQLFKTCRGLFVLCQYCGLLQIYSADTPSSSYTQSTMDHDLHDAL

B1: 13F3H6 (anti-human CCR8 mouse monoclonal antibody) (antibody, V domains shown)
VH: EVQLVESGGGLVRPKGSLKFSCAASGFTFNAYAMNWVRQAPGKGLEWVARIRTKSNNYATYYADSVKDRFTISRDDSENMLYLQMNNLKTEDTAIYYCVRHKKVREGYAMDYWGQGTSVTVSS
VL: DIVLTQSPASLVLSLGQRATISCRASKSVSTSGYTYMHWYQQKPGQPPKLLIYLASNLESGVPARFSGSGSGTDFTLNIHPVEEEDAATYYCQHSRELPFTFGSGTKLEIK
notes: Mouse antibody purified from hybridoma supernatant
B2: 96F1C4 (anti-human CCR8 mouse monoclonal antibody) (antibody, V domains shown)
VH: QVQLQQSGAELVRPGASVTLSCKASGYTFTDYEMHWVKQTPVHGLEWIGAFDPKTGGTAYNQKFKGKAILTADKSSSTAYMELRSLTSEDSAVYYCARRRFFDVWGAGTTVTVSS
VL: DAVMTQTPLSLPVSLGDQASISCRSSQSLEHSNGNTYLHWYLQKPGQSPQLLIYRVSNRFSGVLDRFSGSGSGTDFTLKISRVEAEDLGVYFCLQVTHVPFTFGTGTKLEIK
notes: as for B1
B3: 13F3H6-hz-eADCC (13F3H6-hz with ADCC-enhanced IgG1 Fc) (antibody)
heavy: EVQLVESGGGLVQPGESLRLSCAASGFTFNAYAMNWVRQAPGQGLEWVARIRTKSNNYATYYADSVKGRFTISRDDSKNTLYLEMNSLRAEDTAVYYCVRHKKVREGYAMDYWGQGTLVTVSSASTKGPSVFPLAPSSKSTSGGTAALGCLVKDYFPEPVTVSWNSGALTSGVHTFPAVLQSSGLYSLSSVVTVPSSSLGTQTYICNVNHKPSNTKVDKKVEPKSCDKTHTCPPCPAPELVGGPSVFLLPPKPKDTLMISRTPEVTCVVVDVSHEDPEVKFNWYVDGVEVHNAKTKPPEEQYNSTLRVVSVLTVLHQDWLNGKEYKCKVSNKALPAPIEKTISKAKGQPREPQVYTLPPSREEMTKNQVSLTCLVKGFYPSDIAVEWESNGQPENNYKTTPLVLDSDGSFFLYSKLTVDKSRWQQGNVFSCSVMHEALHNHYTQKSLSLSPGK
light: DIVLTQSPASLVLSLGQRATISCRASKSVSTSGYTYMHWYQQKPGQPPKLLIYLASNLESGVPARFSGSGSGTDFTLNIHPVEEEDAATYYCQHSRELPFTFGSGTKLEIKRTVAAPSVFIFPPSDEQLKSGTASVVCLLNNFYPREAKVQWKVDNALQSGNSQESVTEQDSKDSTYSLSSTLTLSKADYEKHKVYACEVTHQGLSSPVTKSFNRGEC
notes: also called 13F3H6-eADCC
B4: 96F1C4-hz (humanized anti-human CCR8 monoclonal antibody, human IgG1) (antibody, V domains shown)
VH: QVQLVESGAEVKKPGSSVKVSCKASGYTFTDYEMHWVRQAPGQGLEWMGAFDPKTGGTAYAQKFQGRVTLTADKSTSTAYMELSSLRSEDTAVYYCARRRFFDVWGQGTLVTVSS
VL: DAVMTQTPLSLSVTPGQPASISCRSSQSLEHSNGNTYLHWYLQKPGQSPQLLIYRVSNRFSGVPDRFSGSGSGTDFTLKISRVEAEDVGVYYCLQVTHVPFTFGQGTKVEIKR
notes: Built in the pTT5-h.IgG1 vector
B5: 76H1F11-hz (humanized anti-human CCR8 monoclonal antibody, human IgG1) (antibody, V domains shown)
VH: B4 VH with M34I, F51I, D52K, K54E, A72S, A97T, F101Y
VL: B4 VL with N33D, N35I

Assays:
human CCR4 [1] = biological target: T1, human CCR4; experiment: FACS on HEK293T-h.CCR4 cells
Description: Evaluate the specificity of anti-human CCR8 mouse monoclonal antibodies using FACS. The experimental steps are as follows: digest HEK293T-h.CCR4 cells, centrifuge to collect the cells, and wash three times with pre-cooled PBS. Resuspend the cells in 1% BSA (in PBS), adding 3×10\hat{ }5 cells in a volume of 50 μL to each well of a 96-well V-bottom plate. Dilute the antibody to be tested in 1% BSA (in PBS) to 20 μg/mL, take 50 μL per well, and add it to the cells, resulting in a final antibody concentration of 10 μg/mL. Mix and incubate at 4° C. for 1 hour. Centrifuge to collect the cells and wash three times with pre-cooled PBS. Resuspend the cells in 50 μL of 1% BSA (in PBS), add 1 μL of fluorescent secondary antibody to each well, mix, and incubate at 4° C. for 0.5 hours. Centrifuge to collect the cells, wash three times with pre-cooled PBS, resuspend the cells in 200 μL of PBS, and analyze them.

cynomolgus monkey CCR8 [2] = biological target: T2, cynomolgus monkey CCR8 (cynomolgus monkey, UniProt G7NYJ2 1-355); experiment: FACS on HEK293T-c.CCR8 cells, mouse antibody
T2 construct: whole, on cells; also called c.CCR8; HEK293T-c.CCR8
T2 sequence (G7NYJ2 entry or part of it): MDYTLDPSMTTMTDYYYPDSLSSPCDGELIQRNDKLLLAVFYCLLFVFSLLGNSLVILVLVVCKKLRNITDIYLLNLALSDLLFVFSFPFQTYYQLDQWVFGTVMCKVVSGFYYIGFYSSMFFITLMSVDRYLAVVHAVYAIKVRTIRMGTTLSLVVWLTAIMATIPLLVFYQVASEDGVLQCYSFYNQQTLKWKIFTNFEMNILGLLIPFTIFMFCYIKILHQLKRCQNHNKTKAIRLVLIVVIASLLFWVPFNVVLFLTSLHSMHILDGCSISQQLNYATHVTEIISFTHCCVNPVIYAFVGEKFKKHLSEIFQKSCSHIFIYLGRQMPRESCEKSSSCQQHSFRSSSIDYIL

[3] = biological target: T3, human CCR8 (C-C chemokine receptor type 8) (human, UniProt P51685 1-355); experiment: FACS on HEK293T-h.CCR8 cells, mouse antibody
T3 construct: whole, on cells; also called h.CCR8; HEK293T-h.CCR8
T3 sequence (P51685 whole entry): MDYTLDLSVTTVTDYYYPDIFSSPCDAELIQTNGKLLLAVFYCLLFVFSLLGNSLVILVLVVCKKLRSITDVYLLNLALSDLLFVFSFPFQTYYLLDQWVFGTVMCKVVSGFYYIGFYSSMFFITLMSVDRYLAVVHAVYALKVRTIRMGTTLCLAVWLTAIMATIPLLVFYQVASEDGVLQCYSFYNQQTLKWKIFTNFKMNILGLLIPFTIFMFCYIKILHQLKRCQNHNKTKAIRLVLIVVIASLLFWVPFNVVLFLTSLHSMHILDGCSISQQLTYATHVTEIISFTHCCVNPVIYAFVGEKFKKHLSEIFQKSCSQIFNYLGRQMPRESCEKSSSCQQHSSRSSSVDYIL

[4] = biological target: T3, human CCR8 (C-C chemokine receptor type …); experiment: cell-based or functional assay
[5] = biological target: T3, human CCR8 (C-C chemokine receptor type …); experiment: FACS on HEK293T-h.CCR8 cells, test 2 (anti-human Alexa Fluor 647 secondary antibody)
Description: (§1) The affinity of humanized monoclonal antibodies against human CCR8 was assessed using FACS. The experimental procedure was as follows: HEK293T-h.CCR8 cells were digested and collected by centrifugation, followed by three washes with pre-cooled PBS. The cells were resuspended in 1% BSA (in PBS), with 3×10\hat{ }5 cells added to each well of a 96-well V-bottom plate (50 μL per well). Prepare the antibody dilution series in 1% BSA (in PBS), starting from 40 μg/mL. Perform a 3-fold serial dilution across 10 concentration points. Add 50 μL per well to the cells, so that the final antibody concentration in the wells starts from 20 μg/mL. Mix thoroughly and incubate at 4° C. for 1 hour. The cells were collected by centrifugation, washed three times with pre-cooled PBS, resuspended in 50 μL 1% BSA (in PBS), and 1 μL of fluorescent secondary antibody (Biolegend, Catalog No.: 410708) was added to each well. The mixture was incubated at 4° C. for 30 minutes, followed by three washes with pre-cooled PBS. The cells were then resuspended in 200 μL PBS for detection.

cynomolgus monkey CCR8 [6] = biological target: T2, cynomolgus monkey CCR8; experiment: FACS on HEK293T-c.CCR8 cells
human CCR4 [7] = biological target: T1, human CCR4; experiment: FACS on HEK293T-h.CCR4 cells; remark: listed apart in the source
Description: The specificity of humanized monoclonal antibodies against human CCR4 was assessed using FACS. HEK293T-h.CCR4 cells were collected, washed, and resuspended in 1% BSA (in PBS). Each well of a 96-well V-bottom plate received 3×10\hat{ }5 cells, followed by the addition of the test antibodies at a final concentration of 20 μg/mL and incubation at 4° C. for one hour. After washing, 1 μL of fluorescent secondary antibody (Biolegend, Catalog No.: 410708) was added, and the mixture was incubated. The cells were washed and resuspended for detection using a flow cytometer (Beckman, Model: CytoFLEX).

[8] = biological target: T3, human CCR8 (C-C chemokine receptor type …); experiment: FACS on HEK293T-h.CCR8 cells, test 1
Description: as §1

Row | Binder | binding result (human CCR4 [1]) | EC50 (cynomolgus monkey CCR8 [2]) [µg/mL] | EC50 [3] [nM] | ADCC activity EC50 [4] [µg/mL] | ADCP activity EC50 [4] [µg/mL] | Inhibition rate of CCL1-mediated cell migration (%) at 50 µg/mL, BaF3-h.CCR8 cells, Transwell [4] [%] | EC50 [5] [µg/mL] | binding result (cynomolgus monkey CCR8 [6]) | binding result (human CCR4 [7]) | EC50 [8] [µg/mL]
1 | B1 | no binding (tested: 10 µg/mL) | 0.288 | 0.37 | – | – | – | – | – | – | –
2 | B2 | no binding (tested: 10 µg/mL) | – | 0.16 | – | – | – | – | – | – | –
3 | B3 | – | – | – | 0.00117 | 0.0647 | 73.5 | 0.0244 | – | – | –
4 | B4 | – | – | – | 0.0052 | 0.107 | 60.1 | – | no binding | no binding (tested: 20 µg/mL) | 0.0796
5 | B5 | – | – | – | 0.0148 | – | – | – | no binding | no binding (tested: 20 µg/mL) | 0.322

Reference: US20250388684A1 (SICHUAN SWIFTBIO BIOTECHNOLOGY, published 2025)
